Measurements from PMC2924314, “Peptides derived from the HIV-1 integrase promote HIV-1 infection and multi-integration of viral cDNA in LEDGF/p75-knockdown cells” (Virology Journal, 2010).

Target: INS (IN derived-integrase stimulatory peptide) (HIV-1)
Experiment: ELISA

Substance: Lens Epithelium Derived Growth Factor p75 (LEDGF/p75), histidine-tagged recombinant, O75475 1-530 (natural protein; other documents disagree on this pair)
- Kd: 2200 nM
